Measured values published in US20060083713A1.

Legend:
[1] = target: LP-48-FLAG fusion polypeptide (human LP-48 / IL-17C, mature, with the FLAG epitope fused to the native C-terminus) (human) (UniProt Q9P0M4); assay: HUVEC incubated with 5 ug/ml LP-48, then control antibodies and 125I-protein A (radioimmunoassay)
[2] = target: cell surface of HUVEC (human umbilical vein endothelial cells); LP-48 binding partner not identified (human); assay: HUVEC incubated with 5 ug/ml LP-48; bound LP-48 detected with anti-LP-48 antibodies and 125I-protein A (radioimmunoassay)

Row | Molecule | 125I-Protein A Bound (CPM) [1] | 125I-Protein A Bound (CPM) [2]
1 | control antibodies to an unrelated protein (antibody) | 317 CPM | 
2 | LP-48-FLAG fusion polypeptide (human LP-48 / IL-17C, mature, with the FLAG epitope fused to the native C-terminus) (ligand) HHDPSLRGHPHSHGTPHCYSAEELPLGQAPPHLLARGAKWGQALPVALVSSLEAASHRGRHERPSATTQCPVLRPEEVLEADTHQRSISPWRYRVDTDEDRYPQKLAFAECLCRGCIDARTGRETAALNSVRLLQSLLVLRRRPCSRDGSGLPTPGAFAFHTEFIHVPVGCTCVLPRSVDYKDDDDK |  | 5630 CPM
